Test results published in PMC4631590.

How the values were obtained:
[1] = biological target: Corynebacterium ammoniagenes fatty-acid synthase type I (C. ammoniagenes); experiment: SEC; 0.1 M sodium phosphate pH 6.5, 0.1 M NaCl, 5 mM sodium malonate
[2] = biological target: Corynebacterium efficiens fatty-acid synthase type I (FAS B) (C. efficiens) (UniProt Q8FMV7); experiment: SEC; Superose 6 XK 16/70; 0.1 M bis-tris propane pH 6.8, 0.2 M NaCl, 10% glycerol

stoichiometry N [1] | stoichiometry N [2] | Substance
6 | – | Corynebacterium ammoniagenes fatty-acid synthase type I (enzyme)
– | 6 | Corynebacterium efficiens fatty-acid synthase type I (FAS B) (from UniProt Q8FMV7 1-3022) (enzyme)
